Results on 1 molecule are retold here after publication PMC7376022, “ARHGAP10, which encodes Rho GTPase-activating protein 10, is a novel gene for schizophrenia risk” (Translational Psychiatry, 2020).

This assay deals with T1, GST-RhoA (p.Q63L) (UniProt P61586 1-193, p.Q63L).
T1 construct: RhoA, small GTPase, constitutively active mutant Q63L; also called GST-RhoA (Q63L); constitutively active RhoA; source: expressed in HEK293 cells
Nature of the assay: pull-down; GST binding assay; GST-RhoA proteins as bait, GFP-tagged ARHGAP10 as prey; input and bound proteins on immunoblots, densitometry with Odyssey Clx; three independent experiments. A general note: A western blot detects proteins with antibodies after separation by electrophoresis.

T1 sequence (P61586 whole entry Q63L): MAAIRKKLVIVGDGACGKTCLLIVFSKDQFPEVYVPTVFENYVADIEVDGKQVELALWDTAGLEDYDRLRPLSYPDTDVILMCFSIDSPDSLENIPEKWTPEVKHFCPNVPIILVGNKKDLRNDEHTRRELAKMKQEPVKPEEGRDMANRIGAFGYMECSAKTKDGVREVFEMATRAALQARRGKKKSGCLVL

B1: GFP-tagged human ARHGAP10 (p.S490P) mutant (natural protein, UniProt A1A4S6 1-786, looked up)
chain: MGLQPLEFSDCYLDSPWFRERIRAHEAELERTNKFIKELIKDGKNLIAATKSLSVAQRKFAHSLRDFKFEFIGDAVTDDERCIDASLREFSNFLKNLEEQREIMALSVTETLIKPLEKFRKEQLGAVKEEKKKFDKETEKNYSLIDKHLNLSAKKKDSHLQEADIQVEQNRQHFYELSLEYVCKLQEIQERKKFEFVEPMLSFFQGMFTFYHQGHELAKDFNHYKMELQINIQNTRNRFEGTRSEVEELMNKIRQNPKDHKRASQFTAEGYLYVQEKRPAPFGSSWVKHYCMYRKAAKKFNMIPFEHRSGGKLGDGEVFFLKECTKRHTDSIDRRFCFDIEAADRPGVSLTMQAFSEEERKQWLEALGGKEALSHSFNTAIIPRPEGNAQLDKMGFTIIRKCISAVETRGINDQGLYRVVGVSSKVQRLLSMLMDVKTCNEVDLENSADWEVKTITSALKQYLRSLPEPLMTYELHGDFIVPAKSGSPEPRVNAIHFLVHKLPEKNKEMLDILVKHLTNVSNHSKQNLMTVANLGVVFGPTLMRPQEETVAALMDLKFQNIVVEILIENHEKIFRTPPDTTFPEPTCLSASPPNAPPRQSKRQGQRTKRPVAVYNLCLELEDGDNPYPSKEDTPTSSLDSLSSPSPVTTAVPGPPGPDKNHLLADGGSFGDWASTIPGQTRSSMVQWLNPQSPTTTSSNSAVTPLSPGSSPFPFSPPATVADKPPESIRSRKARAVYPCEAEHSSELSFEIGAIFEDVQTSREPGWLEGTLNGKRGLIPQNYVKLL
notes: also called ARHGAP10 (p.S490P)-GFP; source: expressed in HEK293 cells
On to B1, for which the “band intensity percentage relative to the corresponding bait” value is 15.8%.
